This is an account of results in patent publication US20040180405A1 (NEUROSEARCH A S, published 2004).

Assay in all cases: cell-based or functional assay
Experiment [1] concerns the target T1, KCNQ3(G318S) dominant negative mutant (human, UniProt O43525 1-872).
T1 sequence (looked up): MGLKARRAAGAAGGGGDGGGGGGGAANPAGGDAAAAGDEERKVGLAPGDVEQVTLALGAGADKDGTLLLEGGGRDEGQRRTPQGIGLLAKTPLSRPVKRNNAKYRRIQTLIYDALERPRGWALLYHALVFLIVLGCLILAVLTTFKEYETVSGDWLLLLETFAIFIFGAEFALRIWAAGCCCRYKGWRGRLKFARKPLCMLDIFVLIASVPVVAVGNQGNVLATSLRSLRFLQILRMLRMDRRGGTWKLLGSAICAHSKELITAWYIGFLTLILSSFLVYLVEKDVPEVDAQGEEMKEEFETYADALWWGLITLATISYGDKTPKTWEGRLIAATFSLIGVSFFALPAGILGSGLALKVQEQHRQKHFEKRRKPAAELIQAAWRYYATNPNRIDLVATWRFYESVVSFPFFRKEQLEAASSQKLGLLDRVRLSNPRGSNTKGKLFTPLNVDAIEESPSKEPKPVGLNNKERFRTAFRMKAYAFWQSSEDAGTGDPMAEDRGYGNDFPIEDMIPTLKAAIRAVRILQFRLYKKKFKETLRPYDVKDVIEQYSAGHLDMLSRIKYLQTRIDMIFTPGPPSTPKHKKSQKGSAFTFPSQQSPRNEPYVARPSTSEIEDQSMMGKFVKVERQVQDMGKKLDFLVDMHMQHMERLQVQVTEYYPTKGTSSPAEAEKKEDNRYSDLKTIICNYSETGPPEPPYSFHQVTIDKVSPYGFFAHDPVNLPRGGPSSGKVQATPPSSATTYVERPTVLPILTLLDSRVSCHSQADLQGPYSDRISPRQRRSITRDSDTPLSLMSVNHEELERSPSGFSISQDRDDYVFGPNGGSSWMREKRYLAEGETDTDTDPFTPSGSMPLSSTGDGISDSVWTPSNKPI

The target in a further experiment is T2, KCNQ3 (T323Y) mutant (human, UniProt O43525 1-872).
T2 sequence (looked up): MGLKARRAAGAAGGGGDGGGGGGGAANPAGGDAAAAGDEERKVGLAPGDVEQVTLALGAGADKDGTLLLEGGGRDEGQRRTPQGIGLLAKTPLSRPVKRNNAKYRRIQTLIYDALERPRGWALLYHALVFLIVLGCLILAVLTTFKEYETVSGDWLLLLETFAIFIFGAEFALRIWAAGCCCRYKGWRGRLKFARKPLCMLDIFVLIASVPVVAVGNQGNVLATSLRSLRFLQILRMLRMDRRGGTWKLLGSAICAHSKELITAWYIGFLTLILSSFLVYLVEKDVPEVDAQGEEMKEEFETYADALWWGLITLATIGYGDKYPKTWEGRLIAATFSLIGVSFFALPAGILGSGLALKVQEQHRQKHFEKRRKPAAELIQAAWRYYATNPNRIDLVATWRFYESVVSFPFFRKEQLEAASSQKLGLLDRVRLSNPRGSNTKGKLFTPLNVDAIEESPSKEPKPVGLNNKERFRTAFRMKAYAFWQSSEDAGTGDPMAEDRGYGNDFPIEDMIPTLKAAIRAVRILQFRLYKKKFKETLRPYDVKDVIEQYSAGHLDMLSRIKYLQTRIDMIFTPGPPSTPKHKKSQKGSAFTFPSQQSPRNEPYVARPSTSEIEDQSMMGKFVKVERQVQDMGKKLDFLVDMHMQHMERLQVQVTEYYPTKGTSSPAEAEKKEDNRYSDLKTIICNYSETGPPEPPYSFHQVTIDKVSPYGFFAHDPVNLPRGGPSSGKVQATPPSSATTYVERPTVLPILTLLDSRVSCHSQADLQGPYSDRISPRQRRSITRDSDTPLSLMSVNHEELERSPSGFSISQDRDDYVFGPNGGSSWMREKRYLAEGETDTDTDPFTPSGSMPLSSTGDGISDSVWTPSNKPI

Experiment [2] concerns the target T3, KCNQ3 potassium channel subunit (human, UniProt O43525 1-872).
T3 sequence (looked up): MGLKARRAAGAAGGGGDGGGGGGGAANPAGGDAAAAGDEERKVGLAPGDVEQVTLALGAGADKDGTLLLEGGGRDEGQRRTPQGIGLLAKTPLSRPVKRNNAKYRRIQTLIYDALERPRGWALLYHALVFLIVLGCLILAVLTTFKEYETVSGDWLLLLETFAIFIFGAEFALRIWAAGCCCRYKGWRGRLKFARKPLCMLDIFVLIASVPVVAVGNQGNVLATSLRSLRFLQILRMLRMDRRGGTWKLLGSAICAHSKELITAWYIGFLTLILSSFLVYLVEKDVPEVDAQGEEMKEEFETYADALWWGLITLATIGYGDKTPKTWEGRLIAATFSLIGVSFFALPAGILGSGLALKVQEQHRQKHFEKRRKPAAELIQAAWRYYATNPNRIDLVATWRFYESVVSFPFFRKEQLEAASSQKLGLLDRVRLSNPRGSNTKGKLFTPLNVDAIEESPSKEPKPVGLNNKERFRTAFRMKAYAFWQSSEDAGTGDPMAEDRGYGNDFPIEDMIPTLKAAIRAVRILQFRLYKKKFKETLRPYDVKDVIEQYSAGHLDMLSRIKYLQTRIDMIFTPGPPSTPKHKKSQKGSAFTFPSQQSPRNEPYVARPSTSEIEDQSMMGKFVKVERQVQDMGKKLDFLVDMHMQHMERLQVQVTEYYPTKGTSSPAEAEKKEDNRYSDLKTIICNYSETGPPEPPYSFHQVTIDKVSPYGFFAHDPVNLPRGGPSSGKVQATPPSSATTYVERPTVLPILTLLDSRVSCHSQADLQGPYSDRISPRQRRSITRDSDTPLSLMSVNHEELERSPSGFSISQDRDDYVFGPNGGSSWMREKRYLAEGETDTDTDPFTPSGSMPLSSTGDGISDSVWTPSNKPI

B1: KCNQ5 potassium channel subunit (other)
chain: MKDVESGRGRVLLNSAAARGDGLLLLGTRAATLGGGGGGLRESRRGKQGARMSLLGKPLSYTSSQSCRRNVKYRRVQNYLYNVLERPRGWAFIYHAFVFLLVFGCLILSVFSTIPEHTKLASSCLLILEFVMIVVFGLEFIIRIWSAGCCCRYRGWQGRLRFARKPFCVIDTIVLIASIAVVSAKTQGNIFATSALRSLRFLQILRMVRMDRRGGTWKLLGSVVYAHSKELITAWYIGFLVLIFSSFLVYLVEKDANKEFSTYADALWWGTITLTTIGYGDKTPLTWLGRLLSAGFALLGISFFALPAGILGSGFALKVQEQHRQKHFEKRRNPAANLIQCVWRSYAADEKSVSIATWKPHLKALHTCSPTKKEQGEASSSQKLSFKERVRMASPRGQSIKSRQASVGDRRSPSTDITAEGSPTKVQKSWSFNDRTRFRPSLRLKSSQPKPVIDADTALGTDDVYDEKGCQCDVSVEDLTPPLKTVIRAIRIMKFHVAKRKFKETLRPYDVKDVIEQYSAGHLDMLCRIKSLQTRVDQILGKGQITSDKKSREKITAEHETTDDLSMLGRVVKVEKQVQSIESKLDCLLDIYQQVLRKGSASALALASFQIPPFECEQTSDYQSPVDSKDLSGSAQNSGCLSRSTSANISRGLQFILTPNEFSAQTFYALSPTMHSQATQVPISQSDGSAVAATNTIANQINTAPKPAAPTTLQIPPPLPAIKHLPRPETLHPNPAGLQESISDVTTCLVASKENVQVAQSNLTKDRSMRKSFDMGGETLLSVCPMVPKDLGKSLSVQNLIRSTEELNIQLSGSESSGSRGSQDFYPKWRESKLFITDEEVGPEETETDTFDAAPQPAREAAFASDSLRTGRSRSSQSICKAGESTDALSLPHVKLK
For the molecule B1, in experiment [1], the “current relative to WT KCNQ5 currents on co-injection with the dominant negative mutant” value is < 50%. Further, the “IC50 of extracellular TEA (small molecule) on currents of KCNQ5 co-expressed with KCNQ3 (T323Y); KCNQ5 homomers 71 mM” value in the experiment with KCNQ3 (T323Y) mutant is ~30 mM. Moreover, the “IC50 of extracellular TEA (small molecule) on currents of co-expressed KCNQ5 and KCNQ3 (1:1); KCNQ5 homomers 71 mM” value in experiment [2] was ~200 mM.
